Assay results taken from PMC10786891, “Massively parallel profiling of RNA-targeting CRISPR-Cas13d”.
Residue numbers refer to the chain shown, from its start. Numbers in names are those of the source.

Biological target: T1, EsCas13d, nuclease-dead (Eubacterium siraeum, UniProt B0MS50, R295A;H300A;R849A;H854A)
T1 sequence: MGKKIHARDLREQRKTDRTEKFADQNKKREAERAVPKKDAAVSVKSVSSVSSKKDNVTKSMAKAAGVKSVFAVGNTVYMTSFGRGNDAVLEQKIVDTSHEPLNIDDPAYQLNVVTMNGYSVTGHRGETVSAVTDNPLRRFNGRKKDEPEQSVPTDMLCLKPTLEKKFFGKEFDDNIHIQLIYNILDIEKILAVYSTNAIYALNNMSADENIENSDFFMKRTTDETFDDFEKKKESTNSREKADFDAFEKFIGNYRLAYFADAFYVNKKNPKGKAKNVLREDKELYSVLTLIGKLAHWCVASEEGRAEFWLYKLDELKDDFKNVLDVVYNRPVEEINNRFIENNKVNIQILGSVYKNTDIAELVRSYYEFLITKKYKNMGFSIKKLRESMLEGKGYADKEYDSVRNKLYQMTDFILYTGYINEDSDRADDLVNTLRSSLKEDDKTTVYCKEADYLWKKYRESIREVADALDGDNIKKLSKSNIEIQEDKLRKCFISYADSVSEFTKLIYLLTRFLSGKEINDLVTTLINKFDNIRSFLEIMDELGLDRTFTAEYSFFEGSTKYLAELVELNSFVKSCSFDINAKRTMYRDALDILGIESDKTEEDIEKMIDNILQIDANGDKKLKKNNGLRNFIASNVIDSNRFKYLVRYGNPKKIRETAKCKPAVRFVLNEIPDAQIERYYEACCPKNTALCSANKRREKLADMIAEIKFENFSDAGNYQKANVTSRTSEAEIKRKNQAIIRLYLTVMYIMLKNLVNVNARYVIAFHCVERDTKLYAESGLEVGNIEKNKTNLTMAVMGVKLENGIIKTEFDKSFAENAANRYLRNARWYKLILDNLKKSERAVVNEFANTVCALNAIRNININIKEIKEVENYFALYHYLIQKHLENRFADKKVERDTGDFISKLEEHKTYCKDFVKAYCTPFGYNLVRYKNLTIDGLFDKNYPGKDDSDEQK
Assay: crRNA (strand 1, pre-loaded); Mg2+; 40 mM Tris-HCl pH 7.5, 150 mM NaCl, 6 mM MgCl2, 1 mM DTT, 0.1% Tween-20, 0.2 mg/ml BSA; 25 C; 10 min per concentration, then washed
Conditions: tags: His6-TwinStrep-SUMO cleaved; N-terminal SNAP kept (SNAP-Surface 488); label: 3' end held by stalled T7 RNA polymerase

B1: target 1 insA 3' of 19,insU 3' of 4 (mixed)
RNA 1: CACCCGUGCAAAAAUGCAGGGGUCUAAAACUGAGCGGAUAACCUCUCUAUGG
RNA 2: GGGAAUGGAUCCACAUCUACGAAUUCGUACCAUAAGAGAGGUUAUCCGCUUCACCGAGAUCGGAAGAGCACACGU
  Kd: 17.9 ± 0.9 nM

B2: target 1 insG 3' of 10 (mixed)
RNA 1: B1 RNA 1
RNA 2: GGGAAUGGAUCCACAUCUACGAAUUCGUACCAUAGAGAGGUUGAUCCGCUCACCGAGAUCGGAAGAGCACACGU
  Kd: 23 ± 1.7 nM

B3: target 1 insU 3' of 15,insA 3' of 4 (mixed)
RNA 1: B1 RNA 1
RNA 2: B1 RNA 2 with A35G, G36A, A37G, G38U, U50A
  Kd: 9.4 ± 0.8 nM

B4: target 1 insU 3' of 21,insA 3' of 21 (mixed)
RNA 1: B1 RNA 1
RNA 2: GGGAAUGGAUCCACAUCUACGAAUUCGUACCUAAUAGAGAGGUUAUCCGCUCACCGAGAUCGGAAGAGCACACGU
  Kd: 22.4 ± 3.3 nM

B5: target 1 insU 3' of 20,insG 3' of 18 (mixed)
RNA 1: B1 RNA 1
RNA 2: B4 RNA 2 with U32A, A33U, A34U, U35A, A36G
  Kd: 99 ± 21 nM

B6: target 1 insU 3' of 18,insU 3' of 7 (mixed)
RNA 1: B1 RNA 1
RNA 2: B1 RNA 2 with A35U, C47U, G48C, C49G, U50C
  Kd: 47 ± 4 nM

B7: target 1 insA 3' of 11,insU 3' of 5 (mixed)
RNA 1: B1 RNA 1
RNA 2: B1 RNA 2 with A35G, G36A, A37G, G38A, A39G, G41U, U42A, C49U, U50C
  Kd: 18.7 ± 1.5 nM

B8: target 1 A1C,C6A (mixed)
RNA 1: B1 RNA 1
RNA 2: GGGAAUGGAUCCACAUCUACGAAUUCGUACCAUAGAGAGGUUAUCAGCUCCCCGAGAUCGGAAGAGCACACGU
  Kd: 7 ± 0.5 nM

B9: target 1 insC 3' of 17,insC 3' of 16 (mixed)
RNA 1: B1 RNA 1
RNA 2: B4 RNA 2 with U32A, A33U, U35G, A36C, G37A, A38C
  Kd: 27.3 ± 1.6 nM

B10: target 1 A1G,A9G (mixed)
RNA 1: B1 RNA 1
RNA 2: B8 RNA 2 with A43G, A46C, C51G
  Kd: 12.6 ± 0.5 nM

B11: target 1 insC 3' of 19,insA 3' of 11 (mixed)
RNA 1: B1 RNA 1
RNA 2: B1 RNA 2 with A34C, U43A, A44U, U45A, C46U, G48C, C49G, U50C
  Kd: 98 ± 16 nM

B12: target 1 U11G,G17U (mixed)
RNA 1: B1 RNA 1
RNA 2: B8 RNA 2 with G35U, U41G, A46C, C51A
  Kd: 47 ± 5 nM

B13: target 1 C4A,A18C (mixed)
RNA 1: B1 RNA 1
RNA 2: B8 RNA 2 with A34C, A46C, C48A, C51A
  Kd: 63 ± 22 nM

B14: target 1 C6U,U19G (mixed)
RNA 1: B1 RNA 1
RNA 2: B8 RNA 2 with U33G, A46U, C51A
  Kd: 48 ± 11 nM

B15: target 1 insG 3' of 9,insG 3' of 9 (mixed)
RNA 1: B1 RNA 1
RNA 2: B4 RNA 2 with U32A, A33U, U35G, A40G, G41U, G42U, U43A, U44G, A45G
  Kd: 16.2 ± 0.9 nM

B16: target 1 insC 3' of 18,insA 3' of 3 (mixed)
RNA 1: B1 RNA 1
RNA 2: B1 RNA 2 with A35C, U51A
  Kd: 23.9 ± 1.2 nM

B17: target 1 C2G,A16G (mixed)
RNA 1: B1 RNA 1
RNA 2: B8 RNA 2 with A36G, A46C, C50G, C51A
  Kd: 33.1 ± 1.6 nM

B18: target 1 del14,del16 (mixed)
RNA 1: B1 RNA 1
RNA 2: GGGAAUGGAUCCACAUCUACGAAUUCGUACCAUAGGGGUUAUCCGCUCACCGAGAUCGGAAGAGCACACGU
  Kd: 84 ± 17 nM

B19: target 1 G12A,G13A (mixed)
RNA 1: B1 RNA 1
RNA 2: B8 RNA 2 with G39A, G40A, A46C, C51A
  Kd: 5.2 ± 0.23 nM

B20: target 1 complement block 2-14 (mixed)
RNA 1: B1 RNA 1
RNA 2: GGGAAUGGAUCCACAUCUACGAAUUCGUACCAUAGAGUCCAAUAGGCGAGACCGAGAUCGGAAGAGCACACGU
  Kd: 71 ± 17 nM

B21: target 1 C6U,C7G (mixed)
RNA 1: B1 RNA 1
RNA 2: B8 RNA 2 with C45G, A46U, C51A
  Kd: 7.9 ± 0.8 nM

B22: target 1 insG 3' of 20,insA 3' of 8 (mixed)
RNA 1: B1 RNA 1
RNA 2: B1 RNA 2 with U33G, A34U, C46A, G48C, C49G, U50C
  Kd: 60 ± 7 nM

B23: target 1 insU 3' of 9,insC 3' of 3 (mixed)
RNA 1: B1 RNA 1
RNA 2: B1 RNA 2 with A35G, G36A, A37G, G38A, A39G, G41U, U43A, A44U, U51C
  Kd: 16.3 ± 1.1 nM

B24: target 1 G5A,U8C (mixed)
RNA 1: B1 RNA 1
RNA 2: B8 RNA 2 with U44C, A46C, G47A, C51A
  Kd: 15.3 ± 0.7 nM

B25: target 1 insU 3' of 14,insA 3' of 11 (mixed)
RNA 1: B1 RNA 1
RNA 2: B4 RNA 2 with U32A, A33U, U35G, G39U, A40G, G42U, U43A
  Kd: 54 ± 10 nM

B26: target 1 G15C,C21U (mixed)
RNA 1: B1 RNA 1
RNA 2: B8 RNA 2 with C31U, G37C, A46C, C51A
  Kd: 9.4 ± 0.7 nM

B27: target 1 G5A,A9U (mixed)
RNA 1: B1 RNA 1
RNA 2: B8 RNA 2 with A43U, A46C, G47A, C51A
  Kd: 29.7 ± 1.8 nM

B28: target 1 insU 3' of 13,insU 3' of 6 (mixed)
RNA 1: B1 RNA 1
RNA 2: B1 RNA 2 with A35G, G36A, A37G, G38A, A39G, G40U, G48U, C49G, U50C
  Kd: 17.9 ± 1.3 nM

B29: target 1 insG 3' of 8,insA 3' of 3 (mixed)
RNA 1: B1 RNA 1
RNA 2: GGGAAUGGAUCCACAUCUACGAAUUCGUACCAUAGAGAGGUUAUGCCGCUACACCGAGAUCGGAAGAGCACACGU
  Kd: 8.3 ± 0.5 nM

B30: target 1 insG 3' of 20,insA 3' of 19 (mixed)
RNA 1: B1 RNA 1
RNA 2: B4 RNA 2 with U32A, A33G, A34U, U35A
  Kd: 45 ± 7 nM

B31: target 1 insA 3' of 22,insG 3' of 16 (mixed)
RNA 1: B1 RNA 1
RNA 2: B4 RNA 2 with C31A, U32C, A34U, U35A, A36G, G37A, A38G
  Kd: 26.3 ± 2.6 nM

B32: target 1 insA 3' of 19 (mixed)
RNA 1: B1 RNA 1
RNA 2: B2 RNA 2 with G35A, A36G, G37A, A38G, G39A, U41G, G43U
  Kd: 15.9 ± 0.7 nM

B33: target 1 C4U,U11C (mixed)
RNA 1: B1 RNA 1
RNA 2: B8 RNA 2 with U41C, A46C, C48U, C51A
  Kd: 27 ± 5 nM

B34: target 1 insG 3' of 19,insA 3' of 5 (mixed)
RNA 1: B1 RNA 1
RNA 2: B1 RNA 2 with A34G, C49A, U50C
  Kd: 42 ± 5 nM
